Measurements as given in article PMC12192683.

Target: low-density lipoprotein receptor-related protein 1 (LRP1), full-length, purified from human placenta (human) (UniProt Q07954)
Assay: SPR; LRP1 amine-coupled to CM5 chip; RBD or alkylated RBD flowed in HBS-P with 1 mM CaCl2, 25 C; equilibrium analysis (Req against concentration, single class of sites) and single injections of 1 uM

low-density lipoprotein receptor-related protein 1 (LRP1), full-length, purified from human placenta (human), sequence (Q07954 20-4544): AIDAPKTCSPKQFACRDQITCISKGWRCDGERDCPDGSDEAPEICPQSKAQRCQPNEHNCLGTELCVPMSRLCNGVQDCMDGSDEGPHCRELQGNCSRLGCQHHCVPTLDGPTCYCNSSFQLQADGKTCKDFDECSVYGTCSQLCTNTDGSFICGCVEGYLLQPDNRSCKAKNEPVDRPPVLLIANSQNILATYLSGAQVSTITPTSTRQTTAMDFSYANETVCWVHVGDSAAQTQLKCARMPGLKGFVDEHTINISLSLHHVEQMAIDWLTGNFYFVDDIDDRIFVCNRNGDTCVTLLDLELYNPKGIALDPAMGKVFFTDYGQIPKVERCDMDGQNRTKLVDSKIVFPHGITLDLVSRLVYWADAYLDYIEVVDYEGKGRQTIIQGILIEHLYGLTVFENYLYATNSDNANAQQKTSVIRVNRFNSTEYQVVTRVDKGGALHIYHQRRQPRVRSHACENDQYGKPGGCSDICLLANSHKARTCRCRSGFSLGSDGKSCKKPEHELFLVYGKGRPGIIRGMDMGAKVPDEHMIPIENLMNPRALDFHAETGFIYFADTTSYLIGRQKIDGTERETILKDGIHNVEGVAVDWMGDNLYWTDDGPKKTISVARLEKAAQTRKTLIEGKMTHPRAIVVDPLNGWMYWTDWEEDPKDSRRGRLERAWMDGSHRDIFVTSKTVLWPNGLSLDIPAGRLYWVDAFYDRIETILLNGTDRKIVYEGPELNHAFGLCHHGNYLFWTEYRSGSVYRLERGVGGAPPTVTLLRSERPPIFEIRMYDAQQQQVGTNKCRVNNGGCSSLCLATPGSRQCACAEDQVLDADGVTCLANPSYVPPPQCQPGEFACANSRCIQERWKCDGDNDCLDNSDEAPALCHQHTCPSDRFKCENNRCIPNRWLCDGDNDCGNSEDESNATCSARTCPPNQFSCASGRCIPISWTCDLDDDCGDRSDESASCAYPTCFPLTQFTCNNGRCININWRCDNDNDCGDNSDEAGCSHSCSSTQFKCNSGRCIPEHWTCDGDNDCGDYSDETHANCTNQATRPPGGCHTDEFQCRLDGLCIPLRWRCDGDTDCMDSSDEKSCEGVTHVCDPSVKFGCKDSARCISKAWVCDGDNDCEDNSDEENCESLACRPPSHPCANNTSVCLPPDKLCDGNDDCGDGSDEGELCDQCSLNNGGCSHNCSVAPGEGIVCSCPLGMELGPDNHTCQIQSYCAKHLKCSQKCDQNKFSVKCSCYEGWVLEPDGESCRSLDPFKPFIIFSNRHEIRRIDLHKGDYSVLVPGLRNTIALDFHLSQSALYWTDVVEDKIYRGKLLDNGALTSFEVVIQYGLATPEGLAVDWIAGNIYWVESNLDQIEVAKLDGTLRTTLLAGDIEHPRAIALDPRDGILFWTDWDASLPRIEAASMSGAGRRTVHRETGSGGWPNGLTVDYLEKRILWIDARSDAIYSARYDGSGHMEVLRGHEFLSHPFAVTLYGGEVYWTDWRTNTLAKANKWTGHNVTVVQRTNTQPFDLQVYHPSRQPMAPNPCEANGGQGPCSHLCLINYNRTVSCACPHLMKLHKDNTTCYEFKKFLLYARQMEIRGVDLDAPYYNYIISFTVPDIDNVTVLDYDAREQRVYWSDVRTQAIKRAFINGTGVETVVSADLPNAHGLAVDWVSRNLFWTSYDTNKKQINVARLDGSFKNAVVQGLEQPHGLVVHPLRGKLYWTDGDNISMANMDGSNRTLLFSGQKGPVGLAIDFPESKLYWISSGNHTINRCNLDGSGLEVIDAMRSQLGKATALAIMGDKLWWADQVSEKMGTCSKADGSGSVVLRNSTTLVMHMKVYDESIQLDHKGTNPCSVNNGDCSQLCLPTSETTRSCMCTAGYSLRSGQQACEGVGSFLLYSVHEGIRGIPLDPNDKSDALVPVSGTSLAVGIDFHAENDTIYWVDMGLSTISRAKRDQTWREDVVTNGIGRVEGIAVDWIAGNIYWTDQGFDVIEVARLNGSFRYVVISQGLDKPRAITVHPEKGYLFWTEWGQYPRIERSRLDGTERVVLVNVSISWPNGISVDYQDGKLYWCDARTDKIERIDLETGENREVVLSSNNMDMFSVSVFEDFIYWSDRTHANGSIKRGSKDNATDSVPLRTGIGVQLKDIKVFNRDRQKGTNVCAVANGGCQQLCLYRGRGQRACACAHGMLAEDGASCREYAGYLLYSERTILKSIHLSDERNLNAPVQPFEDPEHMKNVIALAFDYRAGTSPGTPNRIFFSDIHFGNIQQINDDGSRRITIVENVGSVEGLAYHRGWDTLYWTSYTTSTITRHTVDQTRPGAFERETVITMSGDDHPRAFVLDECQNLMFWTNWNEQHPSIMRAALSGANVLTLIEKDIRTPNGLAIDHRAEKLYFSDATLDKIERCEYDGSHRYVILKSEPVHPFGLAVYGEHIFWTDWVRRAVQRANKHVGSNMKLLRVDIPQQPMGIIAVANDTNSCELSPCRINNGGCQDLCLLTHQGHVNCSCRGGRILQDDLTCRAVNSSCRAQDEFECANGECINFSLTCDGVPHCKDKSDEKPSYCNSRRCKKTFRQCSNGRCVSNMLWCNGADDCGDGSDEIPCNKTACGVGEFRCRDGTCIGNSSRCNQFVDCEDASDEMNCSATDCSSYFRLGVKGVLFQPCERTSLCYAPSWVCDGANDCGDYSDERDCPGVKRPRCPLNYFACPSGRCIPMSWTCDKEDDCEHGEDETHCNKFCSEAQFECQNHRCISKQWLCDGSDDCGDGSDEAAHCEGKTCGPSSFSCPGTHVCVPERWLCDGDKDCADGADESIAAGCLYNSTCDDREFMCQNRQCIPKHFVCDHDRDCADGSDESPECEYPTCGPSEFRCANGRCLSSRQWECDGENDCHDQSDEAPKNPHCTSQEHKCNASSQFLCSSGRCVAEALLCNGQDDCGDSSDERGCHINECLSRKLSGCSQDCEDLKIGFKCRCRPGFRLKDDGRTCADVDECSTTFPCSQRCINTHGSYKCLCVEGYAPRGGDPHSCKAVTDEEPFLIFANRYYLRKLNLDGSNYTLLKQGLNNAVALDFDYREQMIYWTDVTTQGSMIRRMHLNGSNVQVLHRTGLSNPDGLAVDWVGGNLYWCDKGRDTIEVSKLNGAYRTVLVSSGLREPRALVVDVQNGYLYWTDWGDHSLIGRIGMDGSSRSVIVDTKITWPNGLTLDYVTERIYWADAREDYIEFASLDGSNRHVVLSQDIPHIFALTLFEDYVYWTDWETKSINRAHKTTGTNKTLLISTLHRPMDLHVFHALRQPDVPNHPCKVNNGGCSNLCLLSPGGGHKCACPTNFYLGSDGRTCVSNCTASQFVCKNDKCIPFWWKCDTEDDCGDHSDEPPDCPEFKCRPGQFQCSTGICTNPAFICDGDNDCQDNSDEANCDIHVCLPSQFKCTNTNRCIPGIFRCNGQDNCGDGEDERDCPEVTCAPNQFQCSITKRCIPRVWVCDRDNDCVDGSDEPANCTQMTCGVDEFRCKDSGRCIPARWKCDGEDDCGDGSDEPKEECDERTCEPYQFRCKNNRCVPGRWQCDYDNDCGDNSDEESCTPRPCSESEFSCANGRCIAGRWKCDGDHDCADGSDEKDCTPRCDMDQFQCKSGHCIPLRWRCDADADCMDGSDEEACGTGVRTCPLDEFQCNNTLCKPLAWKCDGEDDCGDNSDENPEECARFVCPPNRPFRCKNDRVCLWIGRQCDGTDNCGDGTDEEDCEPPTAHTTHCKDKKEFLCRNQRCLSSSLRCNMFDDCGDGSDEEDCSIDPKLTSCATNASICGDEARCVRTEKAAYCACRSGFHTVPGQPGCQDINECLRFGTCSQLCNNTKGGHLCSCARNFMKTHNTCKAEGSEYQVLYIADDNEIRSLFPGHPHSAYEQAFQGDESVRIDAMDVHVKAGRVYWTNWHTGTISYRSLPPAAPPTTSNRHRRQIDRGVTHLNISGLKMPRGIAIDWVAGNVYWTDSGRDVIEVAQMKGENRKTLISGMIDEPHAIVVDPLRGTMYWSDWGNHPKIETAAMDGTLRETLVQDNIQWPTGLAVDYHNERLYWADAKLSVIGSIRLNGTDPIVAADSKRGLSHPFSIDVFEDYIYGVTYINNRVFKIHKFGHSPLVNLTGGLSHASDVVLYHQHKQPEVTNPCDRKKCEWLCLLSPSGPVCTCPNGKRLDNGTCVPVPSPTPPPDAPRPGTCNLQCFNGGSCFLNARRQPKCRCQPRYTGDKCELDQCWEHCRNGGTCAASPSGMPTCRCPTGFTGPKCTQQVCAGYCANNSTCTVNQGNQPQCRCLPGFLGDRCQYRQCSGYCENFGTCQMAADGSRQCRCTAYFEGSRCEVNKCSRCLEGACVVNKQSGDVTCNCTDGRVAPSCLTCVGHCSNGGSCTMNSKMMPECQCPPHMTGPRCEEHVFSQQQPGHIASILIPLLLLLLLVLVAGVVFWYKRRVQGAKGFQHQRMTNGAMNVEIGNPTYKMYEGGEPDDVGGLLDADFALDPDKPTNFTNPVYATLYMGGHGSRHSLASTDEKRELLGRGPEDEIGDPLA

Substance: SARS-CoV-2 spike protein receptor binding domain (Arg319-Phe541), his tagged (from UniProt P0DTC2 319-541) (domain or fragment)
- Kd: 0.192 µM
